Among the data in PMC5962072, “Structural insights on the efficient catalysis of hydroperoxide reduction by Ohr: Crystallographic and molecular dynamics approaches” (PLoS ONE, 2018) are pKa values, retold here.

The data set addresses Cys61 (UniProt position 61, AGYSACFIGAL). In words: chemical modification. As to conditions: room temperature; Reduced (dithiol) protein after DTT treatment and desalting; no ligand.

Broadly, the pKa is the pH at which an ionisable group is half protonated.

“Organic hydroperoxide resistance protein (Ohr, XfOhr) (Xylella fastidiosa)”: the pKa was 5.92 ± 0.11.
